One block for each substance: values may come before it.
What was measured:
[1] = molecular target: human IgG1 antibody (Lambda from human myeloma plasma, Sigma-Aldrich) (human); test: SPR (Biacore), IgG1 immobilized at 485 RU, receptor as analyte
[2] = molecular target: IgG of IgG Sepharose 6 Fast Flow resin (GE Healthcare); test: IgG-Sepharose column, 24 h CHO conditioned media, Western blot
[3] = molecular target: IgG of IgG Sepharose 6 Fast Flow resin (GE Healthcare); test: IgG-Sepharose column, one-day conditioned media of CHO cells at 37° C., Western blot
[4] = molecular target: IgG of IgG Sepharose 6 Fast Flow resin (GE Healthcare); test: IgG-Sepharose column, purified protein, Western blot
[5] = molecular target: human IgG1 antibody (Lambda from human myeloma plasma, Sigma-Aldrich) (human); test: SPR (Biacore 3000), steady state, IgG1 immobilized at 1013 RU, receptor as analyte
[6] = molecular target: human IgG1 antibody (Lambda from human myeloma plasma, Sigma-Aldrich) (human); test: SPR (Biacore 3000), IgG1 immobilized at 458 RU, receptor as analyte, 1:1 model
[7] = molecular target: IgG of IgG Sepharose 6 Fast Flow resin (GE Healthcare); test: batch binding of 293F conditioned media to IgG Sepharose, Western blot quantitation, n=2

FcγRIA-CH6 (extracellular domain of human FcγRIA with a C-terminal six His tag), sequence (P12314 other isoform, or with tags, fused parts or gaps): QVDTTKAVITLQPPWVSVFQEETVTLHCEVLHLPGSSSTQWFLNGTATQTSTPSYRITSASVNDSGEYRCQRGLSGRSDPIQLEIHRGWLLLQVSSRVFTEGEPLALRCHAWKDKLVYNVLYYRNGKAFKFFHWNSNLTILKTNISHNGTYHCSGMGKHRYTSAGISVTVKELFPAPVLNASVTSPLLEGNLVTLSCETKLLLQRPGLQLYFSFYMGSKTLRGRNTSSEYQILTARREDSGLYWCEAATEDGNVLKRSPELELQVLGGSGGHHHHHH
untagged recombinant soluble human FcγRIA, sequence (P12314 16-282): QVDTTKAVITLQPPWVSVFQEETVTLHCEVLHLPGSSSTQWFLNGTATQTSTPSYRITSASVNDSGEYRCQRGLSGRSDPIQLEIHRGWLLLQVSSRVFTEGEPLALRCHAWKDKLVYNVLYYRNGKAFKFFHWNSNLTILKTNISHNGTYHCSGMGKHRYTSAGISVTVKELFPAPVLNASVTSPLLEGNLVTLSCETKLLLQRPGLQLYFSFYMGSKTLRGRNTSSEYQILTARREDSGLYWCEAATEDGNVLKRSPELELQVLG
aggregated FcγRIA (purified soluble FcγRIA incubated at 37° C.), sequence (P12314 16-282): as above
FcγRIIIA-CH6 (soluble monomeric human FcγRIIIA extracellular domain with C-terminal His6 tag), sequence (P08637 other isoform, or with tags, fused parts or gaps): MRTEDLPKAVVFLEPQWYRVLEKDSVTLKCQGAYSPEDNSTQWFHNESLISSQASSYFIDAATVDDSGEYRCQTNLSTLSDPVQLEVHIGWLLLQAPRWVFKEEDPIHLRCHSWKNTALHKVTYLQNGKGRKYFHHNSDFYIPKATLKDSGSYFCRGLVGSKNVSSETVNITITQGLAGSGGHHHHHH

Kd [1]: 0.17 nM | koff [1]: 0.00046 s⁻¹ | kon [1]: 2.8e+06 M⁻¹ s⁻¹ | percent of total applied bound to IgG-Sepharose [2]: 14% | percent of total applied in the wash (unbound) [2]: 86% | percent of recovered protein bound and eluted [3]: 20% | percent of recovered protein in unbound fraction [3]: 80%
Substance: untagged recombinant soluble human FcγRIA (from UniProt P12314 16-282) (receptor)

percent of total in bound fraction [4]: 4% | percent of total in unbound wash fraction [4]: 96%
Substance: aggregated FcγRIA (purified soluble FcγRIA incubated at 37° C.) (from UniProt P12314 16-282) (receptor)

Kd [5]: 630 nM
Substance: FcγRIIIA-CH6 (soluble monomeric human FcγRIIIA extracellular domain with C-terminal His6 tag) (from UniProt P08637 18-195) (receptor)

Kd [5]: 1900 nM
Substance: FcγRIIA-CH6 (soluble monomeric human FcγRIIA extracellular domain with C-terminal His6 tag) (from UniProt P12318 34-212) (receptor)

Kd [1]: 0.17 nM | koff [1]: 0.00046 s⁻¹ | kon [1]: 2.8e+06 M⁻¹ s⁻¹ | Kd [6]: 0.17 nM | koff [6]: 0.00046 s⁻¹ | kon [6]: 2.8e+06 M⁻¹ s⁻¹ | percent of total expressed in IgG Sepharose flow-through (aggregate amount) [7]: 66% | percent of total expressed recovered from IgG resin [7]: 21%
Substance: FcγRIA-CH6 (extracellular domain of human FcγRIA with a C-terminal six His tag) (from UniProt P12314 16-282) (receptor)
